Source: patent publication US20070243184A1, “PROPHYLAXIS AND TREATMENT OF ENTEROCOLITIS ASSOCIATED WITH ANTI-CTLA-4 ANTIBODY THERAPY” (priority 2005, published 2007)

Columns and labels:
[1] = including hypothalamic-pituitary suppression; cited from earlier work
[2] = system: patients; assay: Adverse events in patients treated with MDX-010 in clinical protocols; format: in vivo
Excerpt: As noted above, these adverse events are an expected consequence of inhibiting CTLA-4 function. Immune-mediated events are adverse events associated with drug exposure and consistent with an immune-based mechanism of action. In terms of organ system involvement, these events have primarily involved the GI tract (diarrhea and colitis) or the skin (rash and pruritis). Diarrhea due to treatment with MDX-010 ranges from mild to very severe and may become life-threatening. Most cases of diarrhea and colitis have resolved with symptomatic treatment or corticosteroid intervention without known sequelae. Upper GI tract involvement including ileitis, duodenitis, and esophagitis has been observed.
To date, 6 patients in total have experienced gastrointestinal perforation or bleeding requiring colectomy following treatment with MDX-010. Two of these patients had melanoma (representing 0.6% of all patients with melanoma enrolled in MDX-010 related protocols), while four patients had renal cell carcinoma (representing 7% of all patients with renal cell carcinoma enrolled in MDX-010 related protocols). One of the patients with melanoma also received concomitant dacarbazine. After developing diarrhea, they initially appeared to improve on intravenous steroids, but their symptoms worsened after they were tapered off the steroids, and stool cultures were positive for Clostridium difficile, requiring aggressive medical treatment. The patient also developed laboratory evidence of disseminated intravascular coagulopathy (DIC), and required plasma and platelet transfusions. […] The patient's post-operative course was complicated by depression and malnutrition without evidence of systemic vasculitis. The patient developed pneumonia and subsequently died.
In the renal study (MDX010-011), one patient had GI bleeding, which was treated with a colectomy. The bleeding developed after a single dose of MDX-010. The other 3 events in the MDX010-011 study occurred after the patients received 4 to 6 doses of MDX-010. One patient with a bowel perforation was successfully treated with a colectomy and an ostomy. Subsequently, the bowel was re-functionalized. The patient was taken off steroids and has maintained a partial response to their malignancy. […] The diagnosis of colitis was only made on autopsy. The third patient with a bowel perforation continued to have diarrhea and was intermittently treated with steroids. Upon the diagnosis of a non-catastrophic perforation, the patient declined surgical intervention based on the overall progression of disease. The patient opted for hospice care and ultimately died. The fourth patient developed symptoms of colitis after a single dose of MDX-010, had only intermittent steroid treatment, and ultimately underwent a colectomy for uncontrolled bleeding. Of the 3 patients who received steroid therapy, the initiation of steroid therapy was delayed due to poor patient reporting of symptoms to the investigator, and the therapy was compromised by patient non-compliance with the recommended treatment.
The overall incidence of gastrointestinal perforations and/or colectomies is less than 2% of patients.
Skin toxicity in patients receiving MDX-010 has manifested as rash and pruritis, and, when biopsied, pleomorphic infiltrates have been noted in the skin. Some patients have developed vitiligo associated with MDX-010 administration. In our studies, there have been 7 cases of hypopituitarism reported to date, presumably due to immune-mediated hypophysitis. […] The effect of high-dose corticosteroid therapy on reversing pituitary abnormalities is unknown. Ocular inflammation, specifically Grade 2 or Grade 3 episcleritis or uveitis, has been reported in 6 patients; it has occurred in conjunction with GI symptoms in 4 of these patients. In addition, primary adrenal insufficiency has been noted in 3 patients. […]

[3] = system: patients; assay: Clinical (antitumor) response in patients treated with MDX-010; format: in vivo, human
Excerpt: These adverse events, likely reflect a loss of tolerance to some self antigens, or a hyper-response to bacterial antigens present in the gut or skin, and are therefore mechanism-related and may be directly linked to the clinical antitumor activity of MDX-010.
Of note, most responses observed to date have occurred by Week 12, even in patients with initial progression. As such, all patients who receive at least one dose of MDX-010 (BMS-734016) will, whenever possible, first return for the tumor re-staging assessment at Week 12 (and not before). After patients have been treated in the Induction Phase, they will either enter the Maintenance Phase or the Follow-up Phase, depending upon whether or not they meet eligibility criteria to enter the Maintenance Phase.

Compound | adverse effects versus systemically-acting corticosteroids [1] | overall incidence of gastrointestinal perforations and/or colectomies ([2]; all patients) | patients in total who experienced gastrointestinal perforation or bleeding requiring colectomy ([2]; following treatment with MDX-010, all protocols, to date) [patients] | ocular inflammation (Grade 2 or Grade 3 episcleritis or uveitis) reported ([2]; human, in vivo) [patients] | primary adrenal insufficiency noted ([2]; human, in vivo) [patients] | ocular inflammation occurring in conjunction with GI symptoms ([2]; of the 6 patients with ocular inflammation) [patients] | gastrointestinal perforations or colectomies in patients with breast or prostate cancer ([2]; patients with breast or prostate cancer) | gastrointestinal perforation or bleeding requiring colectomy, share of all patients with melanoma enrolled ([2]; patients with melanoma in MDX-010 related protocols) [%] | gastrointestinal perforation or bleeding requiring colectomy, share of all patients with renal cell carcinoma enrolled ([2]; patients with renal cell carcinoma in MDX-010 related protocols) [%] | cases of hypopituitarism reported ([2]; presumably due to immune-mediated hypophysitis, to date) [cases] | time by which most responses observed to date have occurred ([3]; even in patients with initial progression) [Week] | patients developing an autoimmune-like adverse event who also experienced a clinical response ([3]; in one of the studies) [%]
CCCC1O[C@@H]2C[C@H]3[C@@H]4CCC5=CC(=O)C=C[C@]5(C)[C@H]4[C@@H](O)C[C@]3(C)[C@]2(C(=O)CO)O1 (stereo partly drawn) [Budesonide, budesonide] | fewer adverse effects | – | – | – | – | – | – | – | – | – | – | –
MDX-010: human monoclonal anti-CTLA-4 antibody (Medarex, Inc.), corresponds to monoclonal antibody 10D1; also referred to as ipilimumab | – | less than 2 % of patients | 6 | 6 | 3 | 4 | no reported gastrointestinal perforations or colectomies | 0.6 | 7 | 7 | ≤ 12 | ~45
